Laboratory results from patent publication US20190284292A1 (IMMUNOAH THERAPEUTICS, published 2019).
Each block holds one binder with its values, some of them ahead of it.

How the values were obtained:
human 4-1BB [1] = biological target: T1, human 4-1BB (human, UniProt Q07011 24-255); test: flow cytometry, staining of 293T cells transfected with human 4-1BB, compared with untransfected 293T cells
T1 construct: whole, on cells; Also used here for the native receptor on human T cells in the co-stimulation assay; also called CD137; h4-1BB

human 4-1BB [2] = biological target: T1, human 4-1BB; test: binding to 293T cells expressing human 4-1BB

T1 sequence (Q07011 24-255): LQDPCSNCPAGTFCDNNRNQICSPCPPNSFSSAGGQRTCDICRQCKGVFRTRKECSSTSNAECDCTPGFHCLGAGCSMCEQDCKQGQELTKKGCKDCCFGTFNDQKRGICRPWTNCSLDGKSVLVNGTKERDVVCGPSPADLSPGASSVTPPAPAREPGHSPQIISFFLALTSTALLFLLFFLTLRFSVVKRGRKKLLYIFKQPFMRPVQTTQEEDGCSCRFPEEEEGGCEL

binding result (human 4-1BB [1]): binds
B1: ZW103 (antibody, V domains shown)
VH: QVQLQQSGAELVRPGVSVKISCKGSGYTFTDYAMHWVKQSHVKSLEWIGGISTYNGDASYNQKFKGKATMTVDKSSRTAYMELVRLTSEDSAIYYCAPSNYGYAMDYWGQGTSVTVSS
VL: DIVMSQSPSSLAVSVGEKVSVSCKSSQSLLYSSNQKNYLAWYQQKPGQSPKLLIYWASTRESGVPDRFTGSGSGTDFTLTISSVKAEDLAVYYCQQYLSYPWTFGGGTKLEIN
notes: Mouse monoclonal antibody against human 4-1BB from a hybridoma; also called clone ZW103; 4-1BB mAb

binding result (human 4-1BB [1]): binds
B2: ZW104 (antibody, V domains shown)
VH: QVQLQQSGAELARPGASVKMSCKASGYIFTTYAMHWVKQRPGQGLEWIGYINPTTVYTIYNQKFKDKATLTADKSSSTAYMQLSSLTSEDSAVYYCARLGGHWYFDVWGAGTTVTVSS
VL: not shown
notes: Mouse monoclonal antibody against human 4-1BB from a hybridoma; also called clone ZW104; 4-1BB mAb

binding result (human 4-1BB [2]): binds
B3: ZW107 (antibody, V domains shown)
VH: QVQLQQSGAELVRPGTSVKISCKASGYAFTNYWLGWVKQRPGHGLEWIGDIYPGNGNNYYSEKFKDKATLTADKSSSTVYIRLSSLTSEDSAVYFCARHGSFRSAMDYWGQGTSVTVSS
VL: DIQMTQSPASPSASVGETVTITCRASENIYSYLAWYQQKQGKSPQLLVYNAKTLADGVPSRFSGSGSGTQFSLKINSLQPEDFGSYYCQHHYGTPPTFGGGTKLEIK
notes: Mouse monoclonal antibody against human 4-1BB; also called clone ZW107; 4-1BB mAb

binding result (human 4-1BB [2]): binds
B4: ZW106 (antibody, V domains shown)
VH: QVQLQQPESELVRPGGSVKLSCKASGYTFTSYWMDWVKQRHGQGLEWIGNIYPDSGGTNYAEKFKSKATLTVDTSSSTAYMHLSSLTSEDSAVYYCTREEALGGYYELTYWGQGTLVTVSA
VL: DIVLTQSPASLPVSLGQRATISCRASQSVSTSSYSYMHWYQQKPGQPPKLLIKYASNLESGVPARFSGSGSGTDFTLNIHPVEEEDTATYYCQHSWEIPYTFGGGTKLEIE
notes: Mouse monoclonal antibody against human 4-1BB; also called clone ZW106; 4-1BB mAb
